Where a chain is given by its changes, count along the chain named. Where two headings read alike, the source gives them in different places. Blank lines part the entries; values can stand above or below the binder they belong to.
Assays:
human FcgRIIb [1] = target: T1, human FcgRIIb (human); experiment: SPR
T1 chain: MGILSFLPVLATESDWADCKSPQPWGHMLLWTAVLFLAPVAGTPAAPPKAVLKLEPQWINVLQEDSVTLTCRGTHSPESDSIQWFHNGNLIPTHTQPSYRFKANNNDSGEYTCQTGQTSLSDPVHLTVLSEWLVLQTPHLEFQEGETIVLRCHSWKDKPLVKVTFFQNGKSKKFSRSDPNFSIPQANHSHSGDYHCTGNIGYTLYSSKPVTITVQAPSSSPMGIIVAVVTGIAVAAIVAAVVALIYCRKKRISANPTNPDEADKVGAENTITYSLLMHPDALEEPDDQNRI

human FcgRIIb [2] = target: T1, human FcgRIIb; experiment: SPR
human FcgRIIb [3] = target: T1, human FcgRIIb; experiment: SPR
human FcgRIIa(R) [4] = target: T2, human FcgRIIa(R) (human); experiment: SPR
T2 chain: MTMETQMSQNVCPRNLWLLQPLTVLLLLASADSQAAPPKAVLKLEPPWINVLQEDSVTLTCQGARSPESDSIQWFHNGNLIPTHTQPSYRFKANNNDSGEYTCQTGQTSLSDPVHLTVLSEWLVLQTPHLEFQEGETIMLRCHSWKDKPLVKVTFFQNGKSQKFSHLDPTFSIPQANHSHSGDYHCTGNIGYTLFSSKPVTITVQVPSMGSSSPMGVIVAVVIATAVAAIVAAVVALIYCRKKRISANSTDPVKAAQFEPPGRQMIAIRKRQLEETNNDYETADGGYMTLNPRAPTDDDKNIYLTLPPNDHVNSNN

human FcgRIIb [5] = target: T1, human FcgRIIb; experiment: SPR
human FcgRIIa(R) [6] = target: T2, human FcgRIIa(R); experiment: SPR
human FcgRIa [7] = target: human FcgRIa (human); experiment: SPR
human FcgRIa [8] = target: human FcgRIa (human); experiment: SPR; remark: listed apart in the source
human FcgRIIa(H) = target: T3, human FcgRIIa(H) (human); experiment: SPR
T3 chain: T2 chain

human FcgRIIb [9] = target: T1, human FcgRIIb; experiment: SPR
human FcgRIIa(R) [10] = target: T2, human FcgRIIa(R); experiment: SPR
human FcgRIa [11] = target: human FcgRIa (human); experiment: SPR; remark: listed apart in the source
mouse FcRn = target: T4, mouse FcRn (mouse, UniProt Q61559); experiment: SPR, pH 7.0
T4 chain 1: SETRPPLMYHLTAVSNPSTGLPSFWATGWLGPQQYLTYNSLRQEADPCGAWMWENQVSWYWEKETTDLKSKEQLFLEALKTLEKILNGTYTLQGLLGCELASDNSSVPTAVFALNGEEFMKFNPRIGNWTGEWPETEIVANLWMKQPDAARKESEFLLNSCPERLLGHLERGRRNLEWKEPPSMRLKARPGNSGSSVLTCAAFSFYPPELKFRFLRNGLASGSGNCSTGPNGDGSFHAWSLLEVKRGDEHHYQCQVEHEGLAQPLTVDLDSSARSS
T4 chain 2: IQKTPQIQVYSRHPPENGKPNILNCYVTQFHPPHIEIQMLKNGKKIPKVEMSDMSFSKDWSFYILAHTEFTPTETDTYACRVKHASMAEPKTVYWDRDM

[12] = target: human FcRn (with beta2-microglobulin) (human); experiment: SPR, pH 7.0
[13] = target: human FcRn (with beta2-microglobulin) (human); experiment: SPR, pH 7.0; remark: listed apart in the source
[14] = target: human FcRn (with beta2-microglobulin) (human); experiment: SPR, pH 7.0; remark: listed apart in the source
[15] = target: human FcRn (with beta2-microglobulin) (human); experiment: SPR, pH 7.0; remark: listed apart in the source
[16] = target: human FcRn (with beta2-microglobulin) (human); experiment: SPR, neutral pH
[17] = target: human FcRn (with beta2-microglobulin) (human); experiment: SPR, pH 7.0; remark: listed apart in the source

Sequence of human FcgRIa (human) (chain, as listed by the source): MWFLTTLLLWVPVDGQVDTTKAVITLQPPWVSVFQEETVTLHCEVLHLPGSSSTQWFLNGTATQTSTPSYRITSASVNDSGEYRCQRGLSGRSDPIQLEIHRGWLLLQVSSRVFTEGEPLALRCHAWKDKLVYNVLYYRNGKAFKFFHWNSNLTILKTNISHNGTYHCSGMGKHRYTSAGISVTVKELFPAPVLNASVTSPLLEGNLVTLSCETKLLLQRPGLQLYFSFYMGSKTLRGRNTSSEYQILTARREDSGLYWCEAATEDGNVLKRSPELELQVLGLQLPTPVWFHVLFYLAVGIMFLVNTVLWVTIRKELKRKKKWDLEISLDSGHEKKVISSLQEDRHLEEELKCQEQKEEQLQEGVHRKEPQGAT

Kd (human FcgRIIb [1]): 1100 nM
Kd (human FcgRIIb [2]): 1100 nM
B1: IgG1-v1 (antibody)
chain 1: not shown
chain 2: DIQMTQSPSSLSASVGDRVTITCRASQDISSYLNWYQQKPGKAPKLLIYYTSRLHSGVPSRFSGSGSGTDFTFTISSLQPEDIATYYCQQGNTLPYTFGQGTKVEIK

Kd (human FcgRIIb [1]): 11000 nM
B2: IgG1-v4 (antibody)
chain 1: not shown
chain 2: B1 chain 2

Kd (human FcgRIIb [1]): 2300 nM
B3: IgG1-v2 (antibody)
chain 1: not shown
chain 2: B1 chain 2

Kd (human FcgRIIb [3]): 1200 nM
Kd (human FcgRIIa(R) [4]): 15000 nM
Kd (human FcgRIIb [5]): 1200 nM
Kd (human FcgRIIa(R) [6]): 15000 nM
Kd (human FcgRIa [7]): 11 nM
Kd (human FcgRIa [8]): 11 nM
B4: IL6R-BF648 (antibody)
chain 1: not shown
chain 2: B1 chain 2

Kd (human FcgRIIa(H)): 5000 nM
Kd (human FcgRIIb [9]): 6800 nM
Kd (human FcgRIIa(R) [10]): 5000 nM
Kd (human FcgRIa [11]): 0.9 nM
B5: IL6R-F11/IL6R-L (antibody)
chain 1: not shown
chain 2: B1 chain 2

Kd (human FcgRIIb [2]): 13 nM
B6: IgG1-v3 (antibody)
chain 1: not shown
chain 2: B1 chain 2

Kd (mouse FcRn): 3.2 nM
B7: mF40 (antibody)
chain 1: DVQLQESGPVLVKPSQSLSLTCTVTGYSITSDHAWSWIRQFPGNKLEWMGYISYSGITTYNPSLKSRISITRDTSKNQFFLQLNSVTTGDTSTYYCARSLARTTAMDYWGQGTSVTVSSAKTTPPSVYPLAPGSAAQTNSMVTLGCLVKGYFPEPVTVTWNSGSLSSGVHTFPAVLQSDLYTLSSSVTVPSSTWPSETVTCNVAHPASSTKVDKKIVPRDCGCKPCICTVKEVSKVFIFPPKPKDVLYITLEPKVTCVVVDISKDDPEVQFSWFVDDVEVHTAQTQPREEQFNSTFRSVSELPIMHQDWLNGKEFKCRVNSAAFPAPIEKTISKTKGRPKAPQVYTIPPPKEQMAKDKVSLTCMITDFFPEDITVEWQWNGQPAENYKNTQPIMDTDGSYFVYSKLNVQKSNWEAGNTFTCSVLHEGLHWHHTEKSLSHSPGK
chain 2: not shown

Kd (mouse FcRn): 4 nM
B8: mF38 (antibody)
chain 1: B7 chain 1 with K231P, K235S
chain 2: not shown

Kd (mouse FcRn): 21 nM
B9: mF39 (antibody)
chain 1: B7 chain 1 with H429K, W430N
chain 2: not shown

Kd [12]: 36 nM
Kd [13]: 36 nM
B10: IgG1-F140 (antibody)
chain 1: QVQLQESGPGLVKPSETLSLTCAVSGHSISHDHAWSWVRQPPGEGLEWIGFISYSGITNYNPSLQGRVTISRDNSKNTLYLQMNSLRAEDTAVYYCARSLARTTAMDYWGEGTLVTVSSASTKGPSVFPLAPSSKSTSGGTAALGCLVKDYFPEPVTVSWNSGALTSGVHTFPAVLQSSGLYSLSSVVTVPSSSLGTQTYICNVNHKPSNTKVDKKVEPKSCDKTHTCPPCPAPELLGGPKVFLFPPKPKDTLYISRTPEVTCVVVDVSHEDPEVKFNWYVDGVEVHNAKTKPREEQYNSTYRVVSVLTPLHQDWLNGKEYKCKVSNKALPAPIEKTISKAKGQPREPQVYTLPPSRDELTKNQVSLTCLVKGFYPSDIAVEWESNGQPENNYKTTPPVLDSDGSFFLYSKLTVDKSRWQQGNVFSCSVMHEALHYHYTQKSLSLSP
chain 2: not shown

Kd [12]: 94 nM
B11: IgG1-F424 (antibody)
chain 1: B10 chain 1 with Y254M, P259A, M430L
chain 2: not shown

Kd [14]: 150 nM
Kd [15]: 153 nM
B12: F939 (antibody)
chain 1: B10 chain 1 with L237R, P310V, Y438V
chain 2: not shown

Kd [14]: 12 nM
Kd [15]: 12 nM
B13: F1009 (antibody)
chain 1: B10 chain 1 with L237R, T252V, T309Q, Q313A, Y438V
chain 2: not shown

Kd [16]: 300 nM
B14: F39 (antibody)
chain 1: B10 chain 1 with K241S, S256T, P310V
chain 2: not shown

Kd [14]: 310 nM
B15: F821 (antibody)
chain 1: B10 chain 1 with L237R, P310V
chain 2: not shown

Kd [16]: 100 nM
B16: F38 (antibody)
chain 1: B10 chain 1 with K241S, S256T, P310V, Y436W
chain 2: not shown

Kd [12]: 30 nM
Kd [13]: 30 nM
Kd [16]: 30 nM
B17: IgG1-F21 (antibody)
chain 1: B10 chain 1 with K241S
chain 2: not shown

Kd [12]: 150 nM
B18: IgG1-F157 (antibody)
chain 1: B10 chain 1 with K241S, Y254M, P259A, M430L
chain 2: not shown

Kd (human FcgRIIb [2]): 450 nM
B19: IgG1-v5 (antibody)
chain 1: B10 chain 1 with P240D, K241S, Y254M, S269E, P310V, L330F, Y436N
chain 2: B1 chain 2

Kd [17]: 35 nM
B20: IgG1-F763 (antibody)
chain 1: B10 chain 1 with L237R, N288E, T309Q, P310V, Q313A
chain 2: not shown

— US10618965 (dated 2020)
